This note sets out measurements from patent publication US20210238289A1 (Biogen, published 2021).

The labels stand for the following.
B1: Chimeric HP1/2 (antibody, human IgG1, V domains shown)
VH: EVQLQQSGAELVKPGASVKLSCTASGFNIKDTYMHWVKQRPEQGLEWIGRIDPASGDTKYDPKFQVKATITADTSSNTAWLQLSSLTSEDTAVYYCADGMWVSTGYALDFWGQGTTVTVSS
VL: SIVMTQTPKFLLVSAGDRVTITCKASQSVTNDVAWYQQKPGQSPKLLIYYASNRYTGVPDRFTGSGYGTDFTFTISTVQAEDLAVYFCQQDYSSPYTFGGGTKLEIK
notes: also called chimerized HP1/2 antibody; chimeric mAb
B2: H1L1 (antibody, V domains shown)
VH: EVQLVQSGAEVKKPGATVKISCKASGFNIKDTYMHWVQQAPGKGLEWMGRIDPASGDTKYDPKFQVRVTITADTSTDTAYMELSSLRSEDTAVYYCADGMWVSTGYALDFWGQGTLVTVSS
VL: SIVMTQSPDSLAVSLGERATINCKASQSVTNDVAWYQQKPGQPPKLLIYYASNRYTGVPDRFSGSGSGTDFTLTISSLQAEDVAVYFCQQDYSSPYTFGQGTKVEIK
notes: also called Design H1 / Design L1
B3: H1L3 (antibody, V domains shown)
VH: B2 VH
VL: B2 VL with S67Y, L73F, V85T
notes: also called Design H1 / Design L3
B4: CN645 (hu5c8 IgG1 N297P, T299K) (antibody)
heavy: not shown
light: DIVLTQSPATLSVSPGERATISCRASQRVSSSTYSYMHWYQQKPGQPPKLLIKYASNLESGVPARFSGSGSGTDFTLTISSVEPEDFATYYCQHSWEIPPTFGGGTKLEIKRTVAAPSVFIFPPSDEQLKSGTASVVCLLNNFYPREAKVQWKVDNALQSGNSQESVTEQDSKDSTYSLSSTLTLSKADYEKHKVYACEVTHQGLSSPVTKSFNRGEC
B5: EAG2412 (hu5c8 S228P/N297Q, IgG4 CH1, IgG4 CH2, IgG1 CH3, aglycosylated) (antibody)
heavy: QVQLVQSGAEVVKPGASVKLSCKASGYIFTSYYMYWVKQAPGQGLEWIGEINPSNGDTNFNEKFKSKATLTVDKSASTAYMELSSLRSEDTAVYYCTRSDGRNDMDSWGQGTLVTVSSASTKGPSVFPLAPCSRSTSESTAALGCLVKDYFPEPVTVSWNSGALTSGVHTFPAVLQSSGLYSLSSVVTVPSSSLGTKTYTCNVDHKPSNTKVDKRVESKYGPPCPPCPAPEFLGGPSVFLFPPKPKDTLMISRTPEVTCVVVDVSQEDPEVQFNWYVDGVEVHNAKTKPREEQFQSTYRVVSVLTVLHQDWLNGKEYKCKVSNKGLPSSIEKTISKAKGQPREPQVYTLPPSRDELTKNQVSLTCLVKGFYPSDIAVEWESNGQPENNYKTTPPVLDSDGSFFLYSKLTVDKSRWQQGNVFSCSVMHEALHNHYTQKSLSLSP
light: B4 light
notes: also called N297Q IgG4-CH2/IgG1-CH3; copies: 2 + 2
B6: EAG2390 (hu5c8 IgG1 T299P) (antibody)
heavy: not shown
light: B4 light
B7: CN647 (hu5c8 IgG1 N297D, T299K) (antibody)
heavy: not shown
light: B4 light
B8: CN646 (hu5c8 IgG1 N297S, T299K) (antibody)
heavy: not shown
light: B4 light
B9: EAG2300 (hu5c8 IgG4 chimeric hinge + IgG1 CH3, glycosylated) (antibody)
heavy: QVQLVQSGAEVVKPGASVKLSCKASGYIFTSYYMYWVKQAPGQGLEWIGEINPSNGDTNFNEKFKSKATLTVDKSASTAYMELSSLRSEDTAVYYCTRSDGRNDMDSWGQGTLVTVSSASTKGPSVFPLAPCSRSTSESTAALGCLVKDYFPEPVTVSWNSGALTSGVHTFPAVLQSSGLYSLSSVVTVPSSSLGTKTYTCNVDHKPSNTKVDKRVESKYGPPCPPCPAPPVAGPSVFLFPPKPKDTLMISRTPEVTCVVVDVSQEDPEVQFNWYVDGVEVHNAKTKPREEQFNSTYRVVSVLTVLHQDWLNGKEYKCKVSNKGLPSSIEKTISKAKGQPREPQVYTLPPSRDELTKNQVSLTCLVKGFYPSDIAVEWESNGQPENNYKTTPPVLDSDGSFFLYSKLTVDKSRWQQGNVFSCSVMHEALHNHYTQKSLSLSPG
light: B4 light
modifications: N-terminal Q largely converted to pyroglutamic acid; N-linked G0F/G1F/G2F glycans (mass spectrometry)
notes: also called pEAG2300; copies: 2 + 2
B10: YC401 (hu5c8 IgG4.P S228P, T299A, T307P, D399S, aglycosylated) (antibody)
heavy: QVQLVQSGAEVVKPGASVKLSCKASGYIFTSYYMYWVKQAPGQGLEWIGEINPSNGDTNFNEKFKSKATLTVDKSASTAYMELSSLRSEDTAVYYCTRSDGRNDMDSWGQGTLVTVSSASTKGPSVFPLAPCSRSTSESTAALGCLVKDYFPEPVTVSWNSGALTSGVHTFPAVLQSSGLYSLSSVVTVPSSSLGTKTYTCNVDHKPSNTKVDKRVESKYGPPCPPCPAPEFLGGPSVFLFPPKPKDTLMISRTPEVTCVVVDVSQEDPEVQFNWYVDGVEVHNAKTKPREEQFNSAYRVVSVLPVLHQDWLNGKEYKCKVSNKGLPSSIEKTISKAKGQPREPQVYTLPPSQEEMTKNQVSLTCLVKGFYPSDIAVEWESNGQPENNYKTTPPVLSSDGSFFLYSRLTVDKSRWQEGNVFSCSVMHEALHNHYTQKSLSLSLG
light: B4 light
modifications: N-terminal Q largely converted to pyroglutamic acid (mass spectrometry)
notes: copies: 2 + 2
B11: YC403 (hu5c8 IgG4.P S228P, T299A, T307P, L309K, D399S, aglycosylated) (antibody)
heavy: B10 heavy with L307K
light: B4 light
modifications: N-terminal Q largely converted to pyroglutamic acid (mass spectrometry)
notes: copies: 2 + 2
B12: IgG4.P T299A (aglycosylated hu5c8 IgG4.P S228P, T299A) (antibody)
heavy: not shown
light: B4 light
notes: also called agly IgG4.P; IgG4.P agly (S228P, T299A); copies: 2 + 2
B13: EC331 (hu5c8 IgG4.P T299K, T307P, IgG4 CH2/IgG1 CH3 chimera, aglycosylated) (antibody)
heavy: B10 heavy with A297K, Q353R, E354D, M356L, S397D, R407K, E417Q, L443P
light: B4 light
modifications: N-terminal Q largely converted to pyroglutamic acid (mass spectrometry)
notes: copies: 2 + 2
B14: IgG1 T299A (aglycosylated hu5c8 IgG1) (antibody)
heavy: not shown
light: B4 light
notes: also called IgG1 agly (T299A); agly IgG1
B15: EAG2377 (hu5c8 IgG1 T299N) (antibody)
heavy: not shown
light: B4 light
B16: EAG2380 (hu5c8 IgG1 T299F) (antibody)
heavy: not shown
light: B4 light
B17: EAG2389 (hu5c8 IgG1 T299Q) (antibody)
heavy: not shown
light: B4 light
B18: EAG2378 (hu5c8 IgG1 T299R) (antibody)
heavy: not shown
light: B4 light
B19: EAG2379 (hu5c8 IgG1 T299E) (antibody)
heavy: not shown
light: B4 light

Substitutions are numbered along the chain they refer to. In names and notes the source's numbering stands.

For one assay, the target named is T1, α4β1 (VLA-4) as used in the competition ELISAs (UniProt P13612 34-970; P05556 21-728). The assay is described as follows: competition ELISA; integrin preincubated with test mAb, then murine HP1/2 as competing reagent. On the technique in general: ELISA stands for enzyme-linked immunosorbent assay.
A word on the IC50: it is the concentration needed to halve the response being measured. B1 gave an IC50 of 0.00106 µM.
Still for that read-out and setting: the value for B2 was 0.00167 µM; that for B3 was 0.00049 µM.

Another assay concerns the target T2, human C1q (human, UniProt P02745 23-245; P02746 28-253; P02747 29-245).
T2 construct: Bought protein; also called complement factor C1q; Sigma human C1q (C0660)
The assay is described as follows: C1q ELISA. Here is the method:
The C1q binding assay was be performed by coating 96 well Maxisorb ELISA plates (Nalge-Nunc Rochester, N.Y., USA) with 50 μl recombinant soluble human CD40 ligand at 10 ug/ml overnight at 4° C. in PBS. The wells were aspirated and washed three times with wash buffer (PBS, 0.05% Tween 20) and blocked for 1 hour with 200 µl/well of block/diluent buffer (0.1 M Na2HP04, pH 7.0, 1 M NaCl, 0.05% Tween 20, 1% gelatin). The antibodies were diluted in block/diluent buffer with 3-fold dilutions and incubated for 2 hours at room temperature.
After aspirating and washing as above, 50 pll/well of sheep anti C1q (Serotec AHP033), diluted 3, 560-fold in block/diluent buffer, were added. After incubation for 1 h at room temperature, the wells were aspirated and washed as above. 50 pll/well of donkey anti-sheep IgG HRP conjugate (Jackson ImmunoResearch 713-035-147) diluted to 1:10,000 in block/diluent were then added, and the wells incubated for 1 h at room temperature.
After aspirating and washing as above, 100 all TMB substrate (420 plM TMB, 0.004% H2O2 in 0.1 M sodium acetate/citric acid buffer, pH 4.9) were added and incubated for 2 min before the reaction was stopped with 100 ul 2 N sulfuric acid. The absorbance was read at 450 nm with a Softmax PRO instrument, and Softmax software was used to determine the relative binding affinity (C value) with a 4-parameter fit.
For the molecule B4, the binding result is “no binding”.
Same read-out and setting: in the case of B5 it was “no binding”.
With B6, the binding result was “no binding”.
On the same count and under the same terms, in the case of B7 it was “no binding”; in that of B8, “no binding”.

In another assay the target is T3, CD64 (FcγRI) (UniProt P12314 16-288, limits assumed). The assay is described as follows: solution competition SPR (Biacore); construct titrated into receptor, free receptor read on immobilized IgG1 MAb. Here is the method:
(§1) Binding to Fcγ receptors was analyzed using solution affinity surface plasmon resonance (ref Day E S, Cachero T G, Qian F, Sun Y, Wen D, Pelletier M, Hsu Y M, Whitty A. Selectivity of BAFF/BLyS and APRIL for binding to the TNF family receptors BAFFR/BR3 and BCMA. Biochemistry. 2005 Feb. 15; 44(6):1919-31.) The method utilizes conditions of so-called “mass-transport-limited” binding, in which the initial rate of ligand binding (protein binding to the senor chip) is proportional to the concentration of ligand in solution (ref BIApplications Handbook (1994) Chapter 6: Concentration measurement, pp 6-1-6-10, Pharmacia Biosensor AB). Under these conditions, binding of the soluble analyte (protein flowing over chip surface) to the immobilized protein on the chip is fast compared to the diffusion of the analyte into the dextran matrix on the chip surface. Therefore, the diffusion properties of the analyte and the concentration of analyte in solution flowing over the chip surface determine the rate at which analyte binds to the chip. In this experiment, the concentration of free Fc receptor in solution is determined by the initial rate of binding to a CM5 Biacore chip containing an immobilized IgG1 MAb. Into these Fc receptor solutions were titrated the stability engineered constructs (see Table 10.1 below). […] Initial binding rates were obtained from raw sensorgram data (FIG. 14). […] The results are shown in Table 10.1 and reported as the average of two titrations.
(In general: Surface plasmon resonance follows binding to a sensor surface in real time, without labels.)
Consider B9, for which the IC50 is 3020 µM.
Same read-out and setting: in the case of B10 it was 377 µM; in that of B11, 434 µM.
On the same count and under the same terms, in the case of B12 it was 739 µM.
On the same count and under the same terms, in the case of B13 it was 2600 µM; in that of B14, 205 µM.

The next assay deals with T3, CD64 (FcγRI). The assay is described as follows: solution competition SPR (Biacore). Here is the method: as §1
For B4, the IC50 turned out to be 4390 µM.
On the same count and under the same terms, in the case of B15 it was 586 µM.
With B16, the concentration for half-maximal inhibition (IC50) is 345 µM.
Still for that read-out and setting: in the case of B6 it was 392 µM.
On the same count and under the same terms, in the case of B17 it was 455 µM; in that of B7, 4480 µM; in that of B18, 5970 µM.
Still for that read-out and setting: in the case of B8 it was 3160 µM; in that of B19, 196 µM.

For a further assay, the target named is T1, α4β1 (VLA-4) as used in the competition …. The assay is described as follows: competition ELISA; mixture of mouse HP1/2 with test mAb binding to integrin.
For the molecule B1, the IC50 was 0.00164 µM.
On the same count and under the same terms, the value for B2 was 0.00455 µM.
